Assay results: PMC9482650, “Quantitative fragmentomics allow affinity mapping of interactomes” (Nature Communications, 2022)
Positions count from the first letter of the chain named.

Each binder was assayed against LIMK2, P53671 (assay: holdup assay). Settings: plain residues with an end cap or a label only (N-terminal biotin on a linker: ado-ado).
Set-up: key: below the threshold = too weak to quantify, mostly under pKd 3.1 to 4

Chain of LIMK2, P53671 (P53671 143-248): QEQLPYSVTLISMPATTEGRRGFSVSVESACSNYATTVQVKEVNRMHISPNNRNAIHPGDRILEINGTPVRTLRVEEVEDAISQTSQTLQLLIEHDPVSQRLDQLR

| Binder | pKd |
| --- | --- |
| YAEKRMLTEV [KCNA6, P17658] | below the threshold |

Each binder was assayed against MAGI2_6, Q86UL8 (assay: holdup assay). Settings: plain residues with an end cap or a label only (N-terminal biotin on a linker: ado-ado).
Set-up: key: below the threshold = too weak to quantify, mostly under pKd 3.1 to 4

Chain of MAGI2_6, Q86UL8 (Q86UL8 1141-1229): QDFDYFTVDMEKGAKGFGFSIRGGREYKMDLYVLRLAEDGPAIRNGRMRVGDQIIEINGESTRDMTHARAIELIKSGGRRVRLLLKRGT

| Binder | pKd |
| --- | --- |
| YAEKRMLTEV [KCNA6, P17658] | below the threshold |

Each binder was assayed against FRMPD3, Q5JV73 (assay: holdup assay). Settings: plain residues with an end cap or a label only (N-terminal biotin on a linker: ado-ado).
Set-up: key: below the threshold = too weak to quantify, mostly under pKd 3.1 to 4

Chain of FRMPD3, Q5JV73 (Q5JV73 12-100): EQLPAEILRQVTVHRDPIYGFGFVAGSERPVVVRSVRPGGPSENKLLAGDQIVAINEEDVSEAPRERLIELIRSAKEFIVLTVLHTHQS

| Binder | pKd |
| --- | --- |
| YAEKRMLTEV [KCNA6, P17658] | below the threshold |

The binders below were run against T1, TX1BP3, O14907 (assay: holdup assay). Settings: plain residues with an end cap or a label only (N-terminal biotin on a linker: ado-ado).
T1 sequence (O14907 10-122, limits assumed, looked up): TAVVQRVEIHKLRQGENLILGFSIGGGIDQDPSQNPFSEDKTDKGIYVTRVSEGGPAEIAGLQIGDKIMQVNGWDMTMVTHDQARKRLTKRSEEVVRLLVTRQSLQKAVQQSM
Set-up: key: below the threshold = too weak to quantify, mostly under pKd 3.1 to 4

| Binder | pKd |
| --- | --- |
| YAEKRMLTEV [KCNA6, P17658] | 4.29 |

What follows are binders tested against T2, DLG3_2, Q92796 (assay: holdup assay). Settings: plain residues with an end cap or a label only (N-terminal biotin on a linker: ado-ado).
T2 sequence (Q92796 221-321, limits assumed, looked up): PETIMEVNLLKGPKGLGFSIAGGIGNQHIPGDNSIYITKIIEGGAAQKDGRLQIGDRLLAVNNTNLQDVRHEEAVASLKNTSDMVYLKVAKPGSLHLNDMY
Set-up: key: below the threshold = too weak to quantify, mostly under pKd 3.1 to 4

| Binder | pKd |
| --- | --- |
| YAEKRMLTEV [KCNA6, P17658] | 4.6 |

These binders were tested against Inadl_10, Q8NI35 (assay: holdup assay). Settings: plain residues with an end cap or a label only (N-terminal biotin on a linker: ado-ado).
Set-up: key: below the threshold = too weak to quantify, mostly under pKd 3.1 to 4

Chain of Inadl_10, Q8NI35 (Q8NI35 1673-1763): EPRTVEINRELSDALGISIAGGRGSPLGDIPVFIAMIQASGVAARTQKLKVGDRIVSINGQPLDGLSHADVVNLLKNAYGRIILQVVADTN

| Binder | pKd |
| --- | --- |
| YAEKRMLTEV [KCNA6, P17658] | below the threshold |

What follows are binders tested against T3, APBA2_2, Q99767 (assay: holdup assay). Settings: plain residues with an end cap or a label only (N-terminal biotin on a linker: ado-ado).
T3 sequence (Q99767 654-744, limits assumed, looked up): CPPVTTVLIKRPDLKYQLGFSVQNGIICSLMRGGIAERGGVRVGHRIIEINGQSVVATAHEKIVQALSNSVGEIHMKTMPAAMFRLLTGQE
Set-up: key: below the threshold = too weak to quantify, mostly under pKd 3.1 to 4

| Binder | pKd |
| --- | --- |
| YAEKRMLTEV [KCNA6, P17658] | below the threshold |

These binders were tested against T4, DLG3_1, Q92796 (assay: holdup assay). Settings: plain residues with an end cap or a label only (N-terminal biotin on a linker: ado-ado).
T4 sequence (Q92796 125-227, limits assumed, looked up): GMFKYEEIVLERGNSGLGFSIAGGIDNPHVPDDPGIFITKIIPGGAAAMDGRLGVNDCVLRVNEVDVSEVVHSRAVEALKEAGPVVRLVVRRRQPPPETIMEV
Set-up: key: below the threshold = too weak to quantify, mostly under pKd 3.1 to 4

| Binder | pKd |
| --- | --- |
| YAEKRMLTEV [KCNA6, P17658] | below the threshold |

The binders below were run against Inadl_9, Q8NI35 (assay: holdup assay). Settings: plain residues with an end cap or a label only (N-terminal biotin on a linker: ado-ado).
Set-up: key: below the threshold = too weak to quantify, mostly under pKd 3.1 to 4

Chain of Inadl_9, Q8NI35 (Q8NI35 1530-1615): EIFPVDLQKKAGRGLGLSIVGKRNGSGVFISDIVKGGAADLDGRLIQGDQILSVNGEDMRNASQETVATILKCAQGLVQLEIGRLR

| Binder | pKd |
| --- | --- |
| YAEKRMLTEV [KCNA6, P17658] | below the threshold |

What follows are binders tested against ARHGEF12, Q9NZN5-2 (assay: holdup assay). Settings: plain residues with an end cap or a label only (N-terminal biotin on a linker: ado-ado).
Set-up: key: below the threshold = too weak to quantify, mostly under pKd 3.1 to 4

Chain of ARHGEF12, Q9NZN5-2 (Q9NZN5 other isoform, or with tags, fused parts or gaps): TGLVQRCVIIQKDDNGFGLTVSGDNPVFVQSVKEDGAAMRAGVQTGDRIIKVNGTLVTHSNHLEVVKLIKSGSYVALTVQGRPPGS

| Binder | pKd |
| --- | --- |
| YAEKRMLTEV [KCNA6, P17658] | 4.91 |

These binders were tested against HTRA2, O43464 (assay: holdup assay). Settings: plain residues with an end cap or a label only (N-terminal biotin on a linker: ado-ado).
Set-up: key: below the threshold = too weak to quantify, mostly under pKd 3.1 to 4

Chain of HTRA2, O43464 (O43464 355-458): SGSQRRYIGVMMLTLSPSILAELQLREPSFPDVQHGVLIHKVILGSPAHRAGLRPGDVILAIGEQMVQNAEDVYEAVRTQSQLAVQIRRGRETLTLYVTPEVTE

| Binder | pKd |
| --- | --- |
| YAEKRMLTEV [KCNA6, P17658] | below the threshold |

Each binder was assayed against T5, RAPGEF6, Q8TEU7 (assay: holdup assay). Settings: plain residues with an end cap or a label only (N-terminal biotin on a linker: ado-ado).
T5 sequence (Q8TEU7 525-625, limits assumed, looked up): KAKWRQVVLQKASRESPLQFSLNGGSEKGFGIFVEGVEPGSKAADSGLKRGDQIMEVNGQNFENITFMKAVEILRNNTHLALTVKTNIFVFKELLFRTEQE
Set-up: key: below the threshold = too weak to quantify, mostly under pKd 3.1 to 4

| Binder | pKd |
| --- | --- |
| YAEKRMLTEV [KCNA6, P17658] | 3.48 |

What follows are binders tested against MAGI3_2, Q5TCQ9 (assay: holdup assay). Settings: plain residues with an end cap or a label only (N-terminal biotin on a linker: ado-ado).
Set-up: key: below the threshold = too weak to quantify, mostly under pKd 3.1 to 4

Chain of MAGI3_2, Q5TCQ9 (Q5TCQ9 398-503): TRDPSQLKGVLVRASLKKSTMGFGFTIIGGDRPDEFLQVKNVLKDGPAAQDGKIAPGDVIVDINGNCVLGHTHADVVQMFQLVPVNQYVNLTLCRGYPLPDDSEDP

| Binder | pKd |
| --- | --- |
| YAEKRMLTEV [KCNA6, P17658] | 4.62 |

These binders were tested against LNX1_1, Q8TBB1 (assay: holdup assay). Settings: plain residues with an end cap or a label only (N-terminal biotin on a linker: ado-ado).
Set-up: key: below the threshold = too weak to quantify, mostly under pKd 3.1 to 4

Chain of LNX1_1, Q8TBB1 (Q8TBB1 261-371): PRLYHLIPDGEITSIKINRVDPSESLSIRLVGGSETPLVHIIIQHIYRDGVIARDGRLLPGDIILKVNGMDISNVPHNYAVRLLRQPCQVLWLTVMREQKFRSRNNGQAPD

| Binder | pKd |
| --- | --- |
| YAEKRMLTEV [KCNA6, P17658] | below the threshold |

What follows are binders tested against T6, APBA2_1, Q99767 (assay: holdup assay). Settings: plain residues with an end cap or a label only (N-terminal biotin on a linker: ado-ado).
T6 sequence (Q99767 563-664, limits assumed, looked up): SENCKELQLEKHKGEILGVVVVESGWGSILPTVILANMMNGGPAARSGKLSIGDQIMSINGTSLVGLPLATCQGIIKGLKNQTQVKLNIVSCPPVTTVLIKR
Set-up: key: below the threshold = too weak to quantify, mostly under pKd 3.1 to 4

| Binder | pKd |
| --- | --- |
| YAEKRMLTEV [KCNA6, P17658] | below the threshold |

The binders below were run against T7, PCLO, Q9Y6V0 (assay: holdup assay). Settings: plain residues with an end cap or a label only (N-terminal biotin on a linker: ado-ado).
T7 sequence (Q9Y6V0 4491-4600, limits assumed, looked up): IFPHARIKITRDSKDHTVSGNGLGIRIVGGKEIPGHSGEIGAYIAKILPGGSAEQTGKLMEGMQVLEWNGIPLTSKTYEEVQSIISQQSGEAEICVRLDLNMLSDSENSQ
Set-up: key: below the threshold = too weak to quantify, mostly under pKd 3.1 to 4

| Binder | pKd |
| --- | --- |
| YAEKRMLTEV [KCNA6, P17658] | below the threshold |

The binders below were run against GRIP2_7, Q9C0E4 (assay: holdup assay). Settings: plain residues with an end cap or a label only (N-terminal biotin on a linker: ado-ado).
Set-up: key: below the threshold = too weak to quantify, mostly under pKd 3.1 to 4

Chain of GRIP2_7, Q9C0E4 (Q9C0E4 934-1023): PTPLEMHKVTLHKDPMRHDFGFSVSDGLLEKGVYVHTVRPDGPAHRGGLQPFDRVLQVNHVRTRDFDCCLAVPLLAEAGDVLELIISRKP

| Binder | pKd |
| --- | --- |
| YAEKRMLTEV [KCNA6, P17658] | below the threshold |

What follows are binders tested against LNX1_2, Q8TBB1 (assay: holdup assay). Settings: plain residues with an end cap or a label only (N-terminal biotin on a linker: ado-ado).
Set-up: key: below the threshold = too weak to quantify, mostly under pKd 3.1 to 4

Chain of LNX1_2, Q8TBB1 (Q8TBB1 371-470): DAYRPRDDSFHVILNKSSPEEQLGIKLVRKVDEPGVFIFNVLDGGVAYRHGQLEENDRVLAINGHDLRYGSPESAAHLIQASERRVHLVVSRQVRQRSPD

| Binder | pKd |
| --- | --- |
| YAEKRMLTEV [KCNA6, P17658] | 3.51 |

These binders were tested against T8, SNTG2, Q9NY99 (assay: holdup assay). Settings: plain residues with an end cap or a label only (N-terminal biotin on a linker: ado-ado).
T8 sequence (Q9NY99 68-166, limits assumed, looked up): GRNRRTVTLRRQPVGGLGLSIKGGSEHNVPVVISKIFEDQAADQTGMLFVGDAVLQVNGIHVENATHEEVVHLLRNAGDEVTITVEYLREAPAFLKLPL
Set-up: key: below the threshold = too weak to quantify, mostly under pKd 3.1 to 4

| Binder | pKd |
| --- | --- |
| YAEKRMLTEV [KCNA6, P17658] | below the threshold |

Each binder was assayed against T9, APBA1_1, Q02410 (assay: holdup assay). Settings: plain residues with an end cap or a label only (N-terminal biotin on a linker: ado-ado).
T9 sequence (Q02410 651-752, limits assumed, looked up): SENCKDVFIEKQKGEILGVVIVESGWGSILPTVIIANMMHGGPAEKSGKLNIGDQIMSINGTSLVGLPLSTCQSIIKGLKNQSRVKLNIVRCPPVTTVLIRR
Set-up: key: below the threshold = too weak to quantify, mostly under pKd 3.1 to 4

| Binder | pKd |
| --- | --- |
| YAEKRMLTEV [KCNA6, P17658] | below the threshold |

The binders below were run against GRASP, Q7Z6J2 (assay: holdup assay). Settings: plain residues with an end cap or a label only (N-terminal biotin on a linker: ado-ado).
Set-up: key: below the threshold = too weak to quantify, mostly under pKd 3.1 to 4

Chain of GRASP, Q7Z6J2 (Q7Z6J2 96-193): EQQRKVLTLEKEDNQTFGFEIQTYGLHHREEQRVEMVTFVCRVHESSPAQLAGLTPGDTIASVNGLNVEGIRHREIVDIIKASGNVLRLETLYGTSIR

| Binder | pKd |
| --- | --- |
| YAEKRMLTEV [KCNA6, P17658] | 4.32 |

The binders below were run against T10, LIN7A, O14910 (assay: holdup assay). Settings: plain residues with an end cap or a label only (N-terminal biotin on a linker: ado-ado).
T10 sequence (O14910 103-200, limits assumed, looked up): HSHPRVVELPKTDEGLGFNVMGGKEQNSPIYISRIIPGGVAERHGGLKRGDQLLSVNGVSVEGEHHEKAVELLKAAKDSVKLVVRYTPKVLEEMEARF
Set-up: key: below the threshold = too weak to quantify, mostly under pKd 3.1 to 4

| Binder | pKd |
| --- | --- |
| YAEKRMLTEV [KCNA6, P17658] | below the threshold |

What follows are binders tested against T11, LIN7C, Q9NUP9 (assay: holdup assay). Settings: plain residues with an end cap or a label only (N-terminal biotin on a linker: ado-ado).
T11 sequence (Q9NUP9 88-185, limits assumed, looked up): T10 sequence (O14910 103-200, limits assumed, looked up) with D13E, V20I, V40I, E42D, K77Q, D78G, S79K, A96S
Set-up: key: below the threshold = too weak to quantify, mostly under pKd 3.1 to 4

| Binder | pKd |
| --- | --- |
| YAEKRMLTEV [KCNA6, P17658] | 3.52 |

What follows are binders tested against T12, PARD3B_1, Q8TEW8 (assay: holdup assay). Settings: plain residues with an end cap or a label only (N-terminal biotin on a linker: ado-ado).
T12 sequence (Q8TEW8 196-299, limits assumed, looked up): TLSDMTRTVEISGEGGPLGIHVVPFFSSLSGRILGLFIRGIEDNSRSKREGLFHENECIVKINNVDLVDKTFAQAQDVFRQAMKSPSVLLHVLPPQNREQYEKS
Set-up: key: below the threshold = too weak to quantify, mostly under pKd 3.1 to 4

| Binder | pKd |
| --- | --- |
| YAEKRMLTEV [KCNA6, P17658] | below the threshold |

What follows are binders tested against DLG1_3, Q12959 (assay: holdup assay). Settings: plain residues with an end cap or a label only (N-terminal biotin on a linker: ado-ado).
Set-up: key: below the threshold = too weak to quantify, mostly under pKd 3.1 to 4

Chain of DLG1_3, Q12959 (Q12959 457-571): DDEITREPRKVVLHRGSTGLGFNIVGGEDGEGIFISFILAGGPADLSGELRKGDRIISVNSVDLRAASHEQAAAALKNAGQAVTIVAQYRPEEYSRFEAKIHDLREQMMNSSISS

| Binder | pKd |
| --- | --- |
| YAEKRMLTEV [KCNA6, P17658] | below the threshold |
